These results are taken from paper PMC6386705.

Assay [1] has as its target HuR RRM3 (residues 241 to 326) (human), Q15717. The experiment in a line: ITC. The note with it: remark: other sources report otherwise.
For assay [2] the target is unchanged. As to the kind of experiment: NMR 15N relaxation. The conditions noted are these: remark: other sources report otherwise.

B1: HuR RRM3 (residues 241 to 326), Q15717 241-326 (domain or fragment)
chain: SSGWCIFIYNLGQDADEGILWQMFGPFGAVTNVKVIRDFNTNKCKGFGFVTMTNYEEAAMAIASLNGYRLGDKILQVSFKTNKSHK
Take B1: the dissociation constant (Kd) (usually the constant that tells how readily two partners part at equilibrium) in assay [1] was found to be 31.7 µM. The stoichiometry N (usually a count of units in the complex or per binding partner) in assay [2] turned out to be 2.
